Experimental data: article PMC11398566

B1: p115-RhoGEF-RlucII (Gα12/13 binding domain of human p115-RhoGEF, residues 1–244) (domain or fragment)
chain: MEDFARGAASPGPSRPGLVPVSIIGAEDEDFENELETNSEEQNSQFQSLEQVKRRPAHLMALLQHVALQFEPGPLLCCLHADMLGSLGPKEAKKAFLDFYHSFLEKTAVLRVPVPPNVAFELDRTRADLISEDVQRRFVQEVVQSQQVAVGRQLEDFRSKRLMGMTPWEQELAQLEAWVGRDRASYEARERHVAERLLMHLEEMQHTISTDEEKSAAVVNAIGLYMRHLGVRTKSGDKKSGRNF

What was measured:
[1] = target: Gα13 (GNA13, full-length, from the cDNA resource center) (UniProt Q14344)
[2] = target: Gα13 (GNA13, full-length, from the cDNA resource center) (UniProt Q14344); remark: listed apart in the source
[3] = target: Gα13 (GNA13, full-length, from the cDNA resource center) (UniProt Q14344); remark: listed apart in the source
[4] = target: Gα12 (GNA12, full-length, from the cDNA resource center) (UniProt Q03113)
[5] = target: Gα12 (GNA12, full-length, from the cDNA resource center) (UniProt Q03113); remark: listed apart in the source
[6] = target: Gα12 (GNA12, full-length, from the cDNA resource center) (UniProt Q03113); remark: listed apart in the source

Chain of UniProt Q14344 (Q14344 whole entry): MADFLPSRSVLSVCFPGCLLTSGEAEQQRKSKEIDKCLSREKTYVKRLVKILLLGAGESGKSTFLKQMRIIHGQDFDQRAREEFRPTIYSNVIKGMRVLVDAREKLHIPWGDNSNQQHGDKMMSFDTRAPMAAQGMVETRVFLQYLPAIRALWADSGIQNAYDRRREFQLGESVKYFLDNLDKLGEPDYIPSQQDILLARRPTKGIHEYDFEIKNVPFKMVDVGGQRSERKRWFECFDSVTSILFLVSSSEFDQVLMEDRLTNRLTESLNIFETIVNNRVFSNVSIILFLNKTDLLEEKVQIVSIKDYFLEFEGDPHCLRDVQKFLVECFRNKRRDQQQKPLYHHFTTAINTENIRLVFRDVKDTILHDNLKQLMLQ
Chain of UniProt Q03113 (Q03113 whole entry): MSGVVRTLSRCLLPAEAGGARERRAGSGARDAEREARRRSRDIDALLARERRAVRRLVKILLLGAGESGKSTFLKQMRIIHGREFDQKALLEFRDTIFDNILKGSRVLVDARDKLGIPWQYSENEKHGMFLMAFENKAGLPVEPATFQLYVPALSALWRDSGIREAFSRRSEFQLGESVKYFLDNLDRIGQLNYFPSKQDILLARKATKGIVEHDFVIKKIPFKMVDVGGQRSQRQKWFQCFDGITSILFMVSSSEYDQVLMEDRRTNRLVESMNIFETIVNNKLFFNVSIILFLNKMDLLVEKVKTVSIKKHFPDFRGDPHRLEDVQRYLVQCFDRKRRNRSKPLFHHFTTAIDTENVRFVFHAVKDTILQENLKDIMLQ

ebBRET between PDZ-RhoGEF-RlucII and rGFP-CAAX (recruitment to the plasma membrane), ΔGα12/13 cells with Gα13, constitutive, GPR56-WT DNA up to 250 ng; no increase without Gα13 [1] | ebBRET between PDZ-RhoGEF-RlucII and rGFP-CAAX, ΔGα12/13 cells with Gα13 and GPR56-T383A, time course after 20 nM 10C7, ΔBRET max [2] | ebBRET between PDZ-RhoGEF-RlucII and rGFP-CAAX, ΔGα12/13 cells with Gα13 and GPR56-WT, time course after 20 nM 10C7, maximal ΔBRET after 24 min [3] | ebBRET between p115-RhoGEF-RlucII and rGFP-CAAX (recruitment to the plasma membrane), ΔGα12/13 cells with Gα12, constitutive, GPR56-WT DNA up to 250 ng; no increase without Gα12 [4] | ebBRET between p115-RhoGEF-RlucII and rGFP-CAAX, ΔGα12/13 cells with Gα12, constitutive, increasing GPR56-T383A DNA, maximum [4] | ebBRET between p115-RhoGEF-RlucII and rGFP-CAAX, ΔGα12/13 cells with Gα12 and GPR56-T383A, time course after 20 nM 10C7, ΔBRET max [5] | ebBRET between p115-RhoGEF-RlucII and rGFP-CAAX, ΔGα12/13 cells with Gα12 and GPR56-WT, time course after 20 nM 10C7, maximum ΔBRET at 8 min [6] | Molecule
0.44 BRET ratio | 0.5 ΔBRET | 0.7 ΔBRET | – | – | – | – | PDZ-RhoGEF-RlucII (Gα12/13 binding domain of human PDZ-RhoGEF, residues 281–483) (from UniProt O15085 281-483) (domain or fragment)
– | – | – | 0.44 BRET ratio | 0.228 BRET ratio | 0.2 ΔBRET | 0.19 ΔBRET | B1
